Measurements published in patent publication US20090162366A1.

Columns and labels:
[1] = molecular target: M2-BSA conjugate (influenza A virus, A/Hong Kong/1/68 (H3N2)); assay: peptide-BSA ELISA (++ EC50<10^-9M; + 10^-9M<EC50<10^-8M)
[2] = molecular target: M2G peptide conjugated with BSA (influenza A virus, A/Puerto Rico/8/34 (H1N1)); assay: as above
[3] = molecular target: M2FG peptide conjugated with BSA (influenza A virus, A/X-31 (H3N2)); assay: as above; settings: remark: other sources report otherwise
NM17 (influenza A virus) = assay: ELISA on peptide, Ab 10 µg/ml
M16 (influenza A virus) = assay: ELISA on peptide, Ab 10 µg/ml
[4] = molecular target: M2 peptide (influenza A virus, A/Hong Kong/1/68 (H3N2)); assay: ELISA on peptide, Ab 10 µg/ml
NM16 (influenza A virus) = assay: ELISA on peptide, Ab 10 µg/ml
NM15 (influenza A virus) = assay: ELISA on peptide, Ab 10 µg/ml
M15 (influenza A virus) = assay: ELISA on peptide, Ab 10 µg/ml

B1: C40G1 (antibody, V domains shown)
VH: QLQLQESGPGLVKPSETLSLTCTVSGGSISSSFYYCGWIRQPPGKGLEWIGSIYYRGSTYYNPSLKSRVTISVDTSKNQFSLKLSSVTAADTAVYYCARRVTMVRGVKGDYFDYWGQGTLVTVSS
VL: DIQMTQSPSSLSASVGDRVTITCRASQGISSWLAWYQQKPEKVPKSLIYAASSLQSGVPSRFSGSGSGTDFTLTISSLQPEDFATYYCQQYNYYPLTFGGGTKVEIKR
EC50 [1]: < 1 nM
EC50 [2]: < 1 nM
EC50 [3]: < 1 nM
ELISA(OD450) (NM17 (influenza A virus)): 2.41 OD450
ELISA(OD450) (M16 (influenza A virus)): 2.64 OD450
ELISA(OD450) [4]: 2.56 OD450
ELISA(OD450) (NM16 (influenza A virus)): 2.37 OD450
ELISA(OD450) (NM15 (influenza A virus)): 2.51 OD450
ELISA(OD450) (M15 (influenza A virus)): 2.73 OD450
